Data on four substances can be found in article PMC7076219.

pKd: −log10 of the molar value.

Experiment [1] deals with ligands on KG1a cells (human (endogenous in KG1a)). Nature of the experiment: flow cytometry on cells; KG1a cells stained with 10 ug/ml E-selectin protein in HBSS with 5% FBS and 2 mM CaCl2, 4 °C, 20 min; detected by Strep-tag II mAb and PE anti-mouse IgG1. (In flow cytometry, cells or beads pass a laser one at a time.)
Experiment [2] addresses CD44/HCELL (hematopoietic cell E- and/or L-selectin ligand) (human (endogenous in KG1a)) (UniProt P16070). Nature of the experiment: SPR; Biacore T-100, CM5 chip, 25 °C; CD44/HCELL captured from KG1a lysate by immobilised Hermes-3; E-selectin proteins injected in sequential concentrations at 20 ul/min, 90 s each; running buffer 50 mM Tris pH 8.0, 1% Triton X-100, 50 mM NaCl, 1 mM CaCl2; isotype control subtracted; kon calculated from KD and koff.

Experiment [3] concerns the target E-S6-IgG (mouse E-selectin extracellular region fused to the Fc region of human IgG1, from silkworm) (mouse | human) (UniProt Q00690). Nature of the experiment: native gel or EMSA; purified E-selectin proteins in native PAGE sample buffer on a 10% TBE gel, Tris-glycine buffer, Coomassie stain.

CD44/HCELL (hematopoietic cell E- and/or L-selectin ligand) (human (endogenous in KG1a)), sequence (P16070 other isoform, or with tags, fused parts or gaps): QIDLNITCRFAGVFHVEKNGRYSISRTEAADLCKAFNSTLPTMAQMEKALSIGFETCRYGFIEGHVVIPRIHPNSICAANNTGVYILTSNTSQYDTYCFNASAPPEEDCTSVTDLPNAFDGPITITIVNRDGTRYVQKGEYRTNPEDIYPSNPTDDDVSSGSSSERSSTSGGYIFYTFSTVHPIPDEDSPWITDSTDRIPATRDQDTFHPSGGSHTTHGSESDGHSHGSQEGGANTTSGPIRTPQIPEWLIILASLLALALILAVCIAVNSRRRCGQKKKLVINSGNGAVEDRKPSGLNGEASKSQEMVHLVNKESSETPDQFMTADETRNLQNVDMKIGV

“E-S0 (mouse E-selectin lectin and EGF domains, no SCR domains) (domain or fragment)”: the percent of the live KG1a population bound in experiment [1] amounted to 43%. For the same substance, in experiment [2], the negative-log Kd (pKd) is 4.76 and the on-rate (kon) was 4 M⁻¹ s⁻¹.

In the case of “E-S2 (truncated mouse E-selectin with only the first two SCR domains) (domain or fragment)”, in experiment [1], the fluorescence signal, fold lower than E-S6 worked out at 3 fold and the percent of the live KG1a population bound is 76%. For the same substance, in experiment [2], the negative logarithm of the Kd (pKd) was 5.25 and the association rate constant (kon) is 30 M⁻¹ s⁻¹.

As for “E-S2-A28H (E-S2 with the A28H mutation in the lectin domain) (domain or fragment)”, in experiment [1], the fluorescence signal (geometric mean) worked out at 1690; the fluorescence signal, fold lower than E-S6 was determined as 2 fold; the percent of the live KG1a population bound was 84%. Further, in experiment [2], the pKd is 5.60 and the kon is 80 M⁻¹ s⁻¹.

Consider “E-S6-IgG (mouse E-selectin extracellular region fused to the Fc region of human IgG1, from silkworm) (from UniProt Q00690 22-557) (Fc fusion)”, for which the percent of the live KG1a population bound in experiment [1] amounted to 96%. Moreover, in experiment [3], the stoichiometry N turned out to be 2. Also, in experiment [2], the pKd is 6.77 and the kon is 950 M⁻¹ s⁻¹.

By pKd is commonly meant the negative decadic logarithm of the Kd, by convention in mol/L. In general, kon refers to the rate constant with which the complex forms. Broadly, the stoichiometry N is the number of molecules, sites or subunits per partner or assembly.
